Measured values reported in publication PMC7383231, “Pseudo-RNA-Binding Domains Mediate RNA Structure Specificity in Upstream of N-Ras”.

How the values were obtained:
dUnr ncCSD8 = target: T1, dUnr ncCSD8 (Drosophila melanogaster, UniProt B7Z0E2 841-922); experiment: NMR titration; no CSPs; EMSA: 20 mM HEPES/NaOH pH 7.5, 50 mM NaCl, 10% glycerol, 2 mM DTT, 1 h at 4 C, ~25 nM RNA; NMR: 20 mM NaP pH 6.5, 50 mM NaCl, 1 mM DTT (10 mM for CSD12), 10% D2O, 298 K; details: protein: recombinant; tags: tag cleaved with TEV
T1 sequence: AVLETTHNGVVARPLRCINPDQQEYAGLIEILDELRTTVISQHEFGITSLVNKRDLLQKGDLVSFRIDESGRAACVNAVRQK

dUnr ncCSD6 = target: T2, dUnr ncCSD6 (Drosophila melanogaster, UniProt B7Z0E2 593-677); experiment: as above; details: protein: recombinant; tags: tag cleaved with TEV
T2 sequence: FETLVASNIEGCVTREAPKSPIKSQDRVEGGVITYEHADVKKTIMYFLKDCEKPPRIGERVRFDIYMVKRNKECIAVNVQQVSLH

dUnr CSD9 = target: T3, dUnr CSD9 (Drosophila melanogaster, UniProt B7Z0E2 898-990); experiment: NMR titration; joint range given for CSD78 and CSD9; EMSA: 20 mM HEPES/NaOH pH 7.5, 50 mM NaCl, 10% glycerol, 2 mM DTT, 1 h at 4 C, ~25 nM RNA; NMR: 20 mM NaP pH 6.5, 50 mM NaCl, 1 mM DTT (10 mM for CSD12), 10% D2O, 298 K; details: protein: recombinant; tags: tag cleaved with TEV
T3 sequence: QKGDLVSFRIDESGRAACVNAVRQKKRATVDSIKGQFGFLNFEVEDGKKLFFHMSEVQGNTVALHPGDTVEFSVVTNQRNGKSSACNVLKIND

dUnr CSD78 = target: T4, dUnr CSD78 (Drosophila melanogaster, UniProt B7Z0E2 756-922); experiment: as above; details: protein: recombinant; tags: tag cleaved with TEV
T4 sequence: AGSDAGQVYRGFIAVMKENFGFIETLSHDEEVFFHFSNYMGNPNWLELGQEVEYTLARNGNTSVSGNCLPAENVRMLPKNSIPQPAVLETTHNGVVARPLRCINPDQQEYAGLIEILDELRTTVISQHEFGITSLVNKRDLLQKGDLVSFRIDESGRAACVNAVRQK

dUnr CSD789 [1] = target: T5, dUnr CSD789 (Drosophila melanogaster, UniProt B7Z0E2 756-990); experiment: EMSA; EMSA: 20 mM HEPES/NaOH pH 7.5, 50 mM NaCl, 10% glycerol, 2 mM DTT, 1 h at 4 C, ~25 nM RNA; NMR: 20 mM NaP pH 6.5, 50 mM NaCl, 1 mM DTT (10 mM for CSD12), 10% D2O, 298 K; details: protein: recombinant; tags: tag cleaved with TEV; label: 3' pCp-Cy5; stem loops
T5 sequence: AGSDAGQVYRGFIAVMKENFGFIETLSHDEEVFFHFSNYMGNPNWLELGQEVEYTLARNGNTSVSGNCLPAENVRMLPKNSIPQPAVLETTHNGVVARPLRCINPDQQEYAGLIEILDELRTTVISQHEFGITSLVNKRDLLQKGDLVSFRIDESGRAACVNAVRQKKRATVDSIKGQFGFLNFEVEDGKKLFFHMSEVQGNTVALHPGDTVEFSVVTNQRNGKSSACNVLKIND

dUnr CSD456 = target: T6, dUnr CSD456 (Drosophila melanogaster, UniProt B7Z0E2 424-677); experiment: as above; details: protein: recombinant; tags: tag cleaved with TEV; label: 3' pCp-Cy5; stem loops
T6 sequence: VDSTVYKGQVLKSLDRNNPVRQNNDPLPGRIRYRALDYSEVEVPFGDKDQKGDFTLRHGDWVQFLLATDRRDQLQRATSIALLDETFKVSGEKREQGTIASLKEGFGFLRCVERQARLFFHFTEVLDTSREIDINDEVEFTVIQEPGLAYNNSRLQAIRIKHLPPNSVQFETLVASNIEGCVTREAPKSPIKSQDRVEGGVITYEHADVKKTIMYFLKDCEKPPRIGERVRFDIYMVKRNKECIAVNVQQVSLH

dUnr CSD123 = target: T7, dUnr CSD123 (Drosophila melanogaster, UniProt B7Z0E2 186-414); experiment: as above; details: protein: recombinant; tags: tag cleaved with TEV; label: 3' pCp-Cy5; stem loops
T7 sequence: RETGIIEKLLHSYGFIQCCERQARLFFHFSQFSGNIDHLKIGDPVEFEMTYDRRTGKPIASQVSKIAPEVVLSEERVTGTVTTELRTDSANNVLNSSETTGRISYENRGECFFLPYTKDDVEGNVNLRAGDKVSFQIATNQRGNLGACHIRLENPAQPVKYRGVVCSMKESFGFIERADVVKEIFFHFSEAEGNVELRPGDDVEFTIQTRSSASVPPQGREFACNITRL

Unr full-length (dUnr) = target: T8, Unr full-length (dUnr) (Drosophila melanogaster, UniProt B7Z0E2 1-1039); experiment: as above; details: protein: recombinant; tags: His6; label: 3' pCp-Cy5; stem loops
T8 sequence: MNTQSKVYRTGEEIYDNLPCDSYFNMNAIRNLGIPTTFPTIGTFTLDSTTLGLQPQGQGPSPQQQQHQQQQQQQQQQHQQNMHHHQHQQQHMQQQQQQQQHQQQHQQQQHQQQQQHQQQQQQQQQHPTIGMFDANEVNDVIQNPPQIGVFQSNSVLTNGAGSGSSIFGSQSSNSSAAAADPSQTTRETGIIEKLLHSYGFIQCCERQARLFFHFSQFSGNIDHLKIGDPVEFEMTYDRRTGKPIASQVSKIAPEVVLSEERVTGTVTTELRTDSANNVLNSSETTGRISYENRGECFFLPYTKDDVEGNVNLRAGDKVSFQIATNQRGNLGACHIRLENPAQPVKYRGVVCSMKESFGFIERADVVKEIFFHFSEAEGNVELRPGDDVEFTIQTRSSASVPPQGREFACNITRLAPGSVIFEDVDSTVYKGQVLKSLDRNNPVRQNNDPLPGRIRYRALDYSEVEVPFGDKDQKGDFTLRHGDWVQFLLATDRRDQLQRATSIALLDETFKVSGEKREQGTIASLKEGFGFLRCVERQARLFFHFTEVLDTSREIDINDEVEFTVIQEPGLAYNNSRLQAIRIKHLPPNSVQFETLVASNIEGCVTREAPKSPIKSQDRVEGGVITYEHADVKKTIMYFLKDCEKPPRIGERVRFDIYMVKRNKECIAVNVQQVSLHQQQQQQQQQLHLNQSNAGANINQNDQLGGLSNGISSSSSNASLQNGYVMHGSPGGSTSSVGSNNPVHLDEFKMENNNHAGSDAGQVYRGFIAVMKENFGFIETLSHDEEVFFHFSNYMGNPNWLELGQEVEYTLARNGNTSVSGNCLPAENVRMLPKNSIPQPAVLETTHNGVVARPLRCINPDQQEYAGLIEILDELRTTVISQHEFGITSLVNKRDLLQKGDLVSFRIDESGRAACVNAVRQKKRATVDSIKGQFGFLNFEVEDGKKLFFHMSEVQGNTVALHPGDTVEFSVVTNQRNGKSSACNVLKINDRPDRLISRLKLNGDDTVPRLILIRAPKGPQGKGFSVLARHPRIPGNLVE

dUnr CSD789 [2] = target: T5, dUnr CSD789; experiment: NMR titration; deuterated protein; CSPs in all three domains, intermediate-to-slow exchange; EMSA: 20 mM HEPES/NaOH pH 7.5, 50 mM NaCl, 10% glycerol, 2 mM DTT, 1 h at 4 C, ~25 nM RNA; NMR: 20 mM NaP pH 6.5, 50 mM NaCl, 1 mM DTT (10 mM for CSD12), 10% D2O, 298 K; details: protein: recombinant; tags: tag cleaved with TEV

AAAAAAAUG (ssRNA) [9-mer RNA from roX2 SL6 loop] was tested, and the binding result (dUnr ncCSD8) was “no binding”, the binding result (dUnr ncCSD6) was “no binding” and the Kd (dUnr CSD9) was ~245 µM. For the same binder, the Kd (dUnr CSD78) was ~245 µM.

B1: SL67 (roX2 lncRNA stem loops 6 and 7) (structured_RNA)
RNA: ACAAUAUGCAAUACAAUACAAUACAAGACAAAAAAAUGUGUCUUGGAACCAACAUUGUACAAGUCGCAAUGCAAACUGAAGUCUUAAAAGACGUGUAAAAUGUUGCAAAUUAAGCAAAUAUAUAUGCAUAUAUGGGUAACGUUUUACGCGCCUUAACCAGU
B1 showed a Kd (dUnr CSD789 [1]) of 32 µM, a Kd (dUnr CSD456) of 16 µM and a Kd (dUnr CSD123) of 1.41 µM. It also gave a Kd (Unr full-length (dUnr)) of 0.707 µM.

AAAAAAAAAAAAAAA (ssRNA) [A15-mer RNA]: binds (dUnr CSD789 [2]).
